Literature values, collected in paper PMC2562372.
pKd: −log10 of the molar value.

Key:
NRP1 (Homo sapiens) = NRP1 (Homo sapiens) (UniProt O14786)
VEGFR1 (Homo sapiens) = VEGFR1 (Homo sapiens) (UniProt P17948)
VEGFR2 (Homo sapiens) = VEGFR2 (Homo sapiens) (UniProt P35968)
UniProt P35968, sequence (P35968 20-1356): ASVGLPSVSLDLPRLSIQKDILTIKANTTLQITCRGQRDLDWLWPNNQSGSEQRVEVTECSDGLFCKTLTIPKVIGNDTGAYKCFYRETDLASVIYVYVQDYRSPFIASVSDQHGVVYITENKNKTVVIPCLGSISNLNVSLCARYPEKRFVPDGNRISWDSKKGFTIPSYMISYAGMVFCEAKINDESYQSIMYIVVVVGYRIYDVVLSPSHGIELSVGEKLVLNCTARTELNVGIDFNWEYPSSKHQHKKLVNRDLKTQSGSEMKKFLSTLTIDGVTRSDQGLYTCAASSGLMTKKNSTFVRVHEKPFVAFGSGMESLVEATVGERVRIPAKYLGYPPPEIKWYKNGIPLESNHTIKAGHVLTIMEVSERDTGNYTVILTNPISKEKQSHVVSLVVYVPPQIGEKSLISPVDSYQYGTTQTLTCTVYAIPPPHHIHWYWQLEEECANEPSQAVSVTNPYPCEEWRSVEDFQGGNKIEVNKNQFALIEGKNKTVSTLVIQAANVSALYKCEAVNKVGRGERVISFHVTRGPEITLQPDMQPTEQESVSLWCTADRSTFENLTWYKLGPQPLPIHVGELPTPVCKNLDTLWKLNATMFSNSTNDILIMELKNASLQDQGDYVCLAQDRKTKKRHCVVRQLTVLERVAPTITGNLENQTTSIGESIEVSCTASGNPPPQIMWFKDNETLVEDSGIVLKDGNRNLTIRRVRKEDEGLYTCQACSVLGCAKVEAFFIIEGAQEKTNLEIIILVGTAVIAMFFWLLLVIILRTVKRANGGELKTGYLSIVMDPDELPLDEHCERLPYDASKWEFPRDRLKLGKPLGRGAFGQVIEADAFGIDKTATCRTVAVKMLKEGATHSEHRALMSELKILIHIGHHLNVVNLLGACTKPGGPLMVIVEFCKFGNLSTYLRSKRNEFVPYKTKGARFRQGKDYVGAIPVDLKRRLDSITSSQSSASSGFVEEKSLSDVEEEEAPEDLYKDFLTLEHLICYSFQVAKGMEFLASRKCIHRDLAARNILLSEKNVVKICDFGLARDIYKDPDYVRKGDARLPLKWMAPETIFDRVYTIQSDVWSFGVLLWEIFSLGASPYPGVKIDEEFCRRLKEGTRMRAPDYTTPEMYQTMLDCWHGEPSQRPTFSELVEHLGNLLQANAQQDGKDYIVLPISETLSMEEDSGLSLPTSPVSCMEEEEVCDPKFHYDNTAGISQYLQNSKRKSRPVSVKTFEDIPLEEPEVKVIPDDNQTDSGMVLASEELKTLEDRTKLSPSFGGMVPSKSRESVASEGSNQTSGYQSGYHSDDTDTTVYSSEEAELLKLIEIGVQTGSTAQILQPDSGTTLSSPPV

UniProt O14786, sequence (O14786 22-923): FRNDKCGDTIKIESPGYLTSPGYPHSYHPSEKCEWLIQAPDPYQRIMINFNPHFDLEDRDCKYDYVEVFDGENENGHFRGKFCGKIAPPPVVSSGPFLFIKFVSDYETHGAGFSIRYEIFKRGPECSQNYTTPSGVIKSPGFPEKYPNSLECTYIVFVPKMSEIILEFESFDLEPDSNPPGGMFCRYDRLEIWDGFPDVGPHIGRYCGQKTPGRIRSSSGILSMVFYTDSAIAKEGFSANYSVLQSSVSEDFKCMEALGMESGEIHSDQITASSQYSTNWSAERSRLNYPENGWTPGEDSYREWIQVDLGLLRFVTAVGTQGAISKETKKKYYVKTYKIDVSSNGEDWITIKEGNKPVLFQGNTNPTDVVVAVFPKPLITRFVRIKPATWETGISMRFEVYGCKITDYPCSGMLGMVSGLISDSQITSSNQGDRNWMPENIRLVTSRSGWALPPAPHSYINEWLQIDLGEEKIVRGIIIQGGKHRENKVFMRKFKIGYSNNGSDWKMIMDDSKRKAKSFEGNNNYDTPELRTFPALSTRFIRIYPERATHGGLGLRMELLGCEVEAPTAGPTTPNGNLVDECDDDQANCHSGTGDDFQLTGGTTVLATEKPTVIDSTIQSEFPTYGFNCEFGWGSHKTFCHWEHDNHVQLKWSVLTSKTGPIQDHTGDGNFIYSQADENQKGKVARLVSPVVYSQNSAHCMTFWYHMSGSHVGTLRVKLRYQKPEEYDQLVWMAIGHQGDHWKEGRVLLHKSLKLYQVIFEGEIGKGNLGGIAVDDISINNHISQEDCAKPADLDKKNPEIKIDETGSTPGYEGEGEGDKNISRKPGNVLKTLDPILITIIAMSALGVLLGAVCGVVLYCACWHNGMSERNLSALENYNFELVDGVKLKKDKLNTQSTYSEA
UniProt P17948, sequence (P17948 27-1338): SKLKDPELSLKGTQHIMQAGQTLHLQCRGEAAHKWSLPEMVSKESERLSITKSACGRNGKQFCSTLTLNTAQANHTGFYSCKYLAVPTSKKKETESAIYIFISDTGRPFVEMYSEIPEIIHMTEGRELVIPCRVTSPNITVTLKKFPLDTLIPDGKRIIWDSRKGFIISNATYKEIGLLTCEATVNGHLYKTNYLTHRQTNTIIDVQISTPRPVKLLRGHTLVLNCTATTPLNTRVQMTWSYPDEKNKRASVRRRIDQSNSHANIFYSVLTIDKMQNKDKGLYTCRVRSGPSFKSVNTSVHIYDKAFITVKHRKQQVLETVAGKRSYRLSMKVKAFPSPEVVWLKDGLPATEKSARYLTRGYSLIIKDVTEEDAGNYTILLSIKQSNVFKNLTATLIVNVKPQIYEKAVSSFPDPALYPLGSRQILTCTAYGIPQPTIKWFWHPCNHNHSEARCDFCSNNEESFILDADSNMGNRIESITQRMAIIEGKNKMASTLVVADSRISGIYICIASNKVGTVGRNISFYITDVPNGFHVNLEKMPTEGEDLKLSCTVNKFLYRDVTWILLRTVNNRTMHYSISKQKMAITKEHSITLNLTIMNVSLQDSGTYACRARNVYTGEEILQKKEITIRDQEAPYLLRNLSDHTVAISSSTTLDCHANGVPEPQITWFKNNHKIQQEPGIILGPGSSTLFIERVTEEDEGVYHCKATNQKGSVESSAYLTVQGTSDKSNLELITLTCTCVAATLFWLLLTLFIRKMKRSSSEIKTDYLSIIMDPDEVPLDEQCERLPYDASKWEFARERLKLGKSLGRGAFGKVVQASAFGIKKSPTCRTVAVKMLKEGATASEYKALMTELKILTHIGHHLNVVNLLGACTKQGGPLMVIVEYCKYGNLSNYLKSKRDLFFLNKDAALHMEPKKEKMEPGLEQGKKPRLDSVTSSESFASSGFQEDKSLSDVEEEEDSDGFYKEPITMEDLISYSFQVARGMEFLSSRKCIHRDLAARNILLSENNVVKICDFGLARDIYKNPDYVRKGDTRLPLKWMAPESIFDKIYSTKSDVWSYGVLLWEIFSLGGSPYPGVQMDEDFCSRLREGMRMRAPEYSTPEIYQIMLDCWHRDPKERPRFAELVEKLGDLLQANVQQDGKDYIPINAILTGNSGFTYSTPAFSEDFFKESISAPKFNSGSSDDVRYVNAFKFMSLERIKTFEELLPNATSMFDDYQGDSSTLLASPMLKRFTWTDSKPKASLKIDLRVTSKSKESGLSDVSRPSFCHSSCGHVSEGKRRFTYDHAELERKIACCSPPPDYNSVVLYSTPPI

VEGF165 (from UniProt P15692)
pKd (NRP1 (Homo sapiens)): 9.51

VEGF (from UniProt P15692)
pKd (VEGFR1 (Homo sapiens)): 10.48 | pKd (VEGFR2 (Homo sapiens)): 10.00
